Test results: article doi:10.1101/2024.07.16.603655 (bioRxiv, 2024)

Experiments:
[1] = target: dsRBD3-6xHis (dsRNA binding domain 3 of zebrafish Prkra) (zebrafish); test: native gel or EMSA
native gel or EMSA = target: the molecule itself; test: native gel or EMSA

Molecule	stoichiometry N [1]	stoichiometry N (native gel or EMSA)
dsRBD3-6xHis (dsRNA binding domain 3 of zebrafish Prkra) (domain or fragment)	2	–
Prkra-6xHis (recombinant wild-type zebrafish Prkra) (natural protein, UniProt B0V3F8 1-282, looked up) MAPQRSQDKTPIQLLHEYGIKISSAPKYELIHADGDAHQPSFMFSVTIGEVTCKGRGSTKKAAKHEAAEAALKLLKRDSQIIDQRDNNGLSPEAGEASNPVGILQELAMQRVWCLPEYVVFMETGPGHMKEFTIACRLEGLEETGSGSSKKLARRAAAENMIAKLQSLSGSSEITWSPPSRVYVESLRNSTGEKVSLLKRTPLSLPNTDYIQMLLEISLELGFQVTYIDIDELTVNGQYQCLVELSTRPVTVCHGSGVTSSNAHNAAAHNALQYIKMVASKH	–	~2
